Laboratory results from article PMC1885643 (Nucleic Acids Research, 2007).
Like-named read-outs stand apart in the source and are kept apart here.

T1: FLAG-hRad9 (human, UniProt Q99638 1-391)
T1 sequence (looked up): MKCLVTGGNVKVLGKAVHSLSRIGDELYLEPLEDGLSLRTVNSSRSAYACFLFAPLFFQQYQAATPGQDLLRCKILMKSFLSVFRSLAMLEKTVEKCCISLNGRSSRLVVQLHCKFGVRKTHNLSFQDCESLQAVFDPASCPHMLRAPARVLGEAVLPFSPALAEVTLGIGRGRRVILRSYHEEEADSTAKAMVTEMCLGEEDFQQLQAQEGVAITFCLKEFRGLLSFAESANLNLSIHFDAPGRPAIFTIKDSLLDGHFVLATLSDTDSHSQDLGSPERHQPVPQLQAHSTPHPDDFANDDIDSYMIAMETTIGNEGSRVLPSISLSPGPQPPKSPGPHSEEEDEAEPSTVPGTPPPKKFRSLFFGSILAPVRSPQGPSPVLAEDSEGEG

B1: GST-hHus1 (natural protein, human, UniProt O60921 1-280, looked up)
chain: MKFRAKIVDGACLNHFTRISNMIAKLAKTCTLRISPDKLNFILCDKLANGGVSMWCELEQENFFNEFQMEGVSAENNEIYLELTSENLSRALKTAQNARALKIKLTNKHFPCLTVSVELLSMSSSSRIVTHDIPIKVIPRKLWKDLQEPVVPDPDVSIYLPVLKTMKSVVEKMKNISNHLVIEANLDGELNLKIETELVCVTTHFKDLGNPPLASESTHEDRNVEHMAEVHIDIRKLLQFLAGQQVNPTKALCNIVNNKMVHFDLLHEDVSLQYFIPALS
B2: FLAG-hHus1 (natural protein, human, UniProt O60921 1-280, looked up)
chain: MKFRAKIVDGACLNHFTRISNMIAKLAKTCTLRISPDKLNFILCDKLANGGVSMWCELEQENFFNEFQMEGVSAENNEIYLELTSENLSRALKTAQNARALKIKLTNKHFPCLTVSVELLSMSSSSRIVTHDIPIKVIPRKLWKDLQEPVVPDPDVSIYLPVLKTMKSVVEKMKNISNHLVIEANLDGELNLKIETELVCVTTHFKDLGNPPLASESTHEDRNVEHMAEVHIDIRKLLQFLAGQQVNPTKALCNIVNNKMVHFDLLHEDVSLQYFIPALS
B3: His-tagged hHus1 (natural protein, human, UniProt O60921 1-280, looked up)
chain: MKFRAKIVDGACLNHFTRISNMIAKLAKTCTLRISPDKLNFILCDKLANGGVSMWCELEQENFFNEFQMEGVSAENNEIYLELTSENLSRALKTAQNARALKIKLTNKHFPCLTVSVELLSMSSSSRIVTHDIPIKVIPRKLWKDLQEPVVPDPDVSIYLPVLKTMKSVVEKMKNISNHLVIEANLDGELNLKIETELVCVTTHFKDLGNPPLASESTHEDRNVEHMAEVHIDIRKLLQFLAGQQVNPTKALCNIVNNKMVHFDLLHEDVSLQYFIPALS
B4: FLAG-hRad1 (natural protein, human, UniProt O60671 1-282, looked up)
chain: MPLLTQQIQDEDDQYSLVASLDNVRNLSTILKAIHFREHATCFATKNGIKVTVENAKCVQANAFIQAGIFQEFKVQEESVTFRINLTVLLDCLSIFGSSPMPGTLTALRMCYQGYGYPLMLFLEEGGVVTVCKINTQEPEETLDFDFCSTNVINKIILQSEGLREAFSELDMTSEVLQITMSPDKPYFRLSTFGNAGSSHLDYPKDSDLMEAFHCNQTQVNRYKISLLKPSTKALVLSCKVSIRTDNRGFLSLQYMIRNEDGQICFVEYYCCPDEEVPESES
B5: GST-hRad1 (natural protein, human, UniProt O60671 1-282, looked up)
chain: MPLLTQQIQDEDDQYSLVASLDNVRNLSTILKAIHFREHATCFATKNGIKVTVENAKCVQANAFIQAGIFQEFKVQEESVTFRINLTVLLDCLSIFGSSPMPGTLTALRMCYQGYGYPLMLFLEEGGVVTVCKINTQEPEETLDFDFCSTNVINKIILQSEGLREAFSELDMTSEVLQITMSPDKPYFRLSTFGNAGSSHLDYPKDSDLMEAFHCNQTQVNRYKISLLKPSTKALVLSCKVSIRTDNRGFLSLQYMIRNEDGQICFVEYYCCPDEEVPESES

Assays:
[1] = target: T2, processed intact hNEIL1 (residues 2–390) (human, UniProt Q96FI4 2-390); assay: pull-down
[2] = target: T3, hNEIL1-CΔ40 (residues 2–350) (human, UniProt Q96FI4 2-350); assay: pull-down
[3] = target: GST-hNEIL1 (residues 1–390) (human, UniProt Q96FI4 1-390); assay: pull-down
FLAG-hRad1 = target: B4; assay: SEC
FLAG-hRad9 = target: T1, FLAG-hRad9; assay: SEC
[4] = target: T2, processed intact hNEIL1 (residues 2–390); assay: pull-down; remark: listed apart in the source
[5] = target: T3, hNEIL1-CΔ40 (residues 2–350); assay: pull-down; remark: listed apart in the source

T2 sequence (Q96FI4 2-390): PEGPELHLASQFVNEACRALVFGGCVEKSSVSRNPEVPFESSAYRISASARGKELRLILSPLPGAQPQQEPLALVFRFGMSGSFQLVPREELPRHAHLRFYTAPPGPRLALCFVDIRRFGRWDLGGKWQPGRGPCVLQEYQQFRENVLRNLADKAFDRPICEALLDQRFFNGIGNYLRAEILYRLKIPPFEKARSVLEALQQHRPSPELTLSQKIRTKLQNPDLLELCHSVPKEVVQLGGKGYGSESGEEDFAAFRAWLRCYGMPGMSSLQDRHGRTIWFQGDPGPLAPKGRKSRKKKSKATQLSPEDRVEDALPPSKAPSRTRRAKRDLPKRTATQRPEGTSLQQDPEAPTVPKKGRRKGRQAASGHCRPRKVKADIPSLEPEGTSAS
T3 sequence (Q96FI4 2-350, stated change not applied): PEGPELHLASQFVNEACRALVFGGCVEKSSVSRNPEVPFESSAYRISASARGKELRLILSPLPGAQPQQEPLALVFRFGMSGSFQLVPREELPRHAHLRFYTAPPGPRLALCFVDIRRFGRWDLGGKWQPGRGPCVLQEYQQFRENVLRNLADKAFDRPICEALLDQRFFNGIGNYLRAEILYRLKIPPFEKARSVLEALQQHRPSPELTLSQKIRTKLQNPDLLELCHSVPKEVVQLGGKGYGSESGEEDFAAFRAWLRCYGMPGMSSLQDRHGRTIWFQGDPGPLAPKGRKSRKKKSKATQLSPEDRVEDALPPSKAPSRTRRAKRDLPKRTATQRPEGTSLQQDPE
Sequence of GST-hNEIL1 (residues 1–390) (Q96FI4 whole entry, the tested form may be a part): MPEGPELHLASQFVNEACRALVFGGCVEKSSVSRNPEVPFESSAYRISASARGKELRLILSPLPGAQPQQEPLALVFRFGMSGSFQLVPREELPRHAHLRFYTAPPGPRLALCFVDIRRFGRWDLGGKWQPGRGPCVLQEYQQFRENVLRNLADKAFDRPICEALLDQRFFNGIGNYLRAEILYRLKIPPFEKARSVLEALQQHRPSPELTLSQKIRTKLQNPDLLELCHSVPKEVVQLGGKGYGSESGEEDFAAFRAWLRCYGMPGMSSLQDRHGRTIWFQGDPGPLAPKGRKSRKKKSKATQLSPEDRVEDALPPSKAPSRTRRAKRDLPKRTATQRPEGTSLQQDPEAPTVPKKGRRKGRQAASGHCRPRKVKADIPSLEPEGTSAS

Binder | binding result [1] | binding result [2] | binding result [3] | binding result (FLAG-hRad9) | also measured
B1 | binds | binds | – | – | –
B2 | – | – | binds | binds | binding result (FLAG-hRad1): binds
B3 | – | – | – | – | binding result [4]: binds; binding result [5]: binds
B4 | – | – | binds | binds | –
B5 | binds | binds | – | – | –
